These results are taken from publication PMC3214075.

This assay has as its target T1, 14-3-3, P63104.
T1 chain: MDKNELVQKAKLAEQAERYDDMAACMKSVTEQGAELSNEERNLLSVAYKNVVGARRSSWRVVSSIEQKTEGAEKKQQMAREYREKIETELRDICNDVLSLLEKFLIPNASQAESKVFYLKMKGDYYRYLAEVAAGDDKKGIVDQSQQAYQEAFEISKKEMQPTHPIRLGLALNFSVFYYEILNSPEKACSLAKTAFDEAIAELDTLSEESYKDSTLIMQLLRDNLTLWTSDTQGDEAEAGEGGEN
Nature of the assay: GST pull-down, Western blot densitometry. The note with it: chain shown with the change; 293T cell extracts, glutathione beads; two blots quantified; parent: est. 1.5; read off a plot. A general note: A western blot detects proteins with antibodies after separation by electrophoresis.

Substitutions are numbered along the chain they refer to. In names and notes the source's numbering stands.

B1: GST-BAD wild type, full length (pEBG-BAD), Q61337 S111A; S112A (protein)
chain: MGTPKQPSLAPAHALGLRKSDPGIRSLGSDAGGRRWRPAAQSMFQIPEFEPSEQEDASATDRGLGPSLTEDQPGPYLAPGLLGSNIHQQGRAATNSHHGGAGAMETRSRHAAYPAGTEEDEGMEEELSPFRGRSRSAPPNLWAAQRYGRELRRMSDEFEGSFKGLPRPKSAGTATQMRQSAGWTRIIQSWWDRNLGKGGSTPSQ
As for B1, the response (IB:14-3-3/total 14-3-3) is 1.9.

B2: GST-BAD wild type, full length (pEBG-BAD), Q61337 S112A (protein)
chain: B1 chain with A111S
For B2, the response (IB:14-3-3/total 14-3-3) was 1.8.

B3: GST-BAD wild type, full length (pEBG-BAD), Q61337 S136A (protein)
chain: B1 chain with A111S, A112S, S136A
As for B3, the response (IB:14-3-3/total 14-3-3) was determined as 0.17.

B4: GST-BAD wild type, full length (pEBG-BAD), Q61337 S112A; S136A (protein)
chain: B1 chain with A111S, S136A
As for B4, the response (IB:14-3-3/total 14-3-3) was determined as 0.19.

B5: GST-BAD wild type, full length (pEBG-BAD), Q61337 S111A; S112A; S136A (protein)
chain: B1 chain with S136A
As for B5, the response (IB:14-3-3/total 14-3-3) was found to be 0.22.

B6: GST-BAD wild type, full length (pEBG-BAD), Q61337 S111A; S136A (protein)
chain: B1 chain with A112S, S136A
Turning to B6, the response (IB:14-3-3/total 14-3-3) was determined as 0.2.

B7: GST-BAD wild type, full length (pEBG-BAD), Q61337 S111A (protein)
chain: B1 chain with A112S
Regarding B7, the response (IB:14-3-3/total 14-3-3) stood at 1.7.
